The values that follow come from patent publication US20110097739A1.

The target in the experiment is HCEC protein fraction. The experiment is described as follows: ELISA on the coated protein fraction, lysate treated or not with neuraminidase. (In general: In an ELISA, binding on a coated surface is turned into a signal by an enzyme label.)

“FC5 llama single-domain antibody (sdAb), expressed in fusion with His5 and c-myc tags (VHH)” showed a reduction of binding after neuraminidase treatment of the lysate of 50%.
